Consider 23 sequences from the DeepSol protein solubility set.

The data set in a line: soluble on expression in E. coli; label from the status in PepcDB or PDB records.
For “MGSDKIHHHHHHMLMNIGKVDNIKIYTLAEDYAGYNSPFWSQHGLSFLIEVESNGIKKRILFDTATYAEPILFNMKLLNINPKSIDMIILSHNHFDHTGGLFGIMKEINKEIPIFAHPNIFKVSFATEPEFMLAGTLNKTLKEDIEKLGGRWVLSRDPIRLMPGIFTLGEIEDEEKINFEKKPTIGLYKLENGRVVLDNVEDEIGLAIVTEKGLIIVSGCSHPGIVSMVKKSIKISGINKVYAVIGGFHLIDADNERIVSTIKALKKLGVKKICTGHCTGFKAENMFMEEFKEDFERLHAGKIIKF”, the “soluble on expression in E. coli” value was “not soluble”.

With “SNAMSEFIMNNLEQTARRWLEERGVTVEKIAELVYYLQSKYHPDLTMEECIENVNRVISKREVQNAILTGIQLDKLAEDGRLDEPLQSIIRRDEGLYGVDEILALSIVNVYGSIGFTNYGYIDKQKPGILQYLNDKSTGKCNTFLDDIVGAIAAAASSRLAHRAANAE”, the “soluble on expression in E. coli” value is reported as “soluble”.

With “MAKILVAGKIPEIGLELLKDHDVEMYDKEELISLDELTERVKDKDALLSLLSTKVTKEVIDAAPSLKIVANYGAGYDNIDYTYAGEKGIAVTNTPKVSTEATAELTFALLLAAARRIPEGDTLCRTTGFNGWAPLFFLGREVHGKTIGIIGLGEIGKAVAKRAKAFGMNILYTGPNRKPEAESELEATYVTLEELLQTADFITINCAYNPKLHHMIDEEQFKMMKKTAYIVNASRGPIMHEAALAHALKTNEIEGAALDVFEFEPKITEELKGLKNVVLAPHVGNATFETRDAMAEMAVRNILAVLKGEEPVTPVNQKVFVTK”, the “soluble on expression in E. coli” value is recorded as “soluble”. Turning to “MFTRQAGHFVEGSKAGRSRGRLCLSQALRVAVRGAFVSLWFAAGAGDRERNKGDKGAQTGAGLSQEAEDVDVSRARRVTDAPQGTLCGTGNRNSGSQSARAVGVAHLGEAFRVGVEQAISSCPEEVHGRHGLSMEIMWAQMDVALRSPGRGLLAGAGALCMTLAESSCPDYERGRRACLTLHRHPTPHCSTWGLPLRVAGSWLTVVTVEALGRWRMGVRRTGQVGPTMHPPPVSGASPLLLHHLLLLLLIIILTC”, the “soluble on expression in E. coli” value is reported as “not soluble”. On to “MKLAVAGKGGVGKTTVAAGLIKIMASDYDKIYAVDGDPDSCLGQTLGLSIEEAYAITPLIEMKDEIREKTGDGGLLILNPKVDGDLDKYGRYIDDKIFLIRMGEIKKGGSQCYCRENSFLGSVVSALFLDKKEAVVMDMGAGIEHLTRGTAKAVDMMIAVIEPNLNSIKTGLNIEKLAGDLGIKKVRYVINKVRNIKEEKLIKKHLPEDKILGIIPYNELFIELSLKGEEIWQSTNPAFVNLHDIYQKLRLEVG”, for which the “soluble on expression in E. coli” value was “soluble”. Turning to “MEGQENKVLFGLENVHYATYSETDGVITYDTPKPLPGGVEISVEPQGDMIKFYADNIVYYQAPNNQGYEGTLTIASIPEGFATDCLGEELDTVDGVLTEKSDAKPKPFALLFEFDGDVKSVRQVLYNCTASRPTVASSTLEHHHHHH”, the “soluble on expression in E. coli” value is on record as “soluble”. As to “MGQLFSSPQSEHQDLASSFTEYFKKFKTGNKIISQDIITLVELSLAKGNIQEANSAIRNALKEIDSTPLNVAVTGESGSGKSSFINTLRGIGHEEKGAAKTGVVEETMERHPYKHPNMPNVVFWDLPGIGTQTFPPKTYLEKMKFYEYDFFIIISATRFKKNDIDLAKAISMMKKEFYFVRTKVDSDLNNEEDFKPQNFDREKVLQNIRLNCVNTFKENGIAEPQIFLVSNKNVCHYDFPVLIDRLISDLPLYKRQNFMLSLPNITESAIEKKQQFLKQSIWLEGFAPDLLSIKPSLAFLNSDLETLEKSMKFYRSVFGVDEASLKSLATAWKIPVDQVEAMMKSPAVFKPTDEETIQERLSRYVLEICFANRYLFRKNLFLRNVFYLKYYFLDMVTEDAKTLLKEIYLRNKLPSN”, the “soluble on expression in E. coli” value is recorded as “not soluble”. Turning to “GSHHHHHHSSGLVPRGSFNELNAINENIRDDLSALLKSDFFKYFRLDLYKQCSFWDANDGLCLNRACSVDVVEDWDTLPEYWQPEILGSFNNDTMKEADDSDDECKFLDQLCQTSKKPVDIEDTINYCDVNDFNGKNAVLIDLTANPERFTGYGGKQAGQIWSTIYQDNCFTIGETGESLAKDAFYRLVSGFHASIGTHLSKEYLNTKTGKWEPNLDLFMARIGNFPDRVTNMYFNYAVVAKALWKIQPYLPEFSFCDLVNKEIKNKMDNVISQLDTKIFNEDLVFANDLSLTLKDEFRSRFKNVTKIMDCVQCDRCRLWGKIQTTGYATALKILFEINDADEFTKQHIVGKLTKYELIALLQTFGRLSESIESVNMFEKMYGKRLLER”, the “soluble on expression in E. coli” value is listed as “soluble”. Next, “SLADYYQVQLNMMPPVNLTVLDHCVENYSWNQMMEQAKLYADMFGFHKYWSVDEDDISTGFTALRSIVMSSSNGQIKMPINEPVKSIMKGQIEEFNDFNGGPGIQHIAFRTNNIIETVMALMQRGVEFNHTSENYYNNLKQRLNNDGIKLYEDFDTLRSLNILIDYDPSEG”: “not soluble”; “MRQTNNKESTMKPTADILASIIEEVRPLTSKGIVADYIPALAKVPSDKLGIAVFTNQGEVITAGDAQEGFSIQSISKVLSLTLAMGLYQPDELWSRVGKEPSGQAFNSLIQLEMEQGIPRNPFINAGAIVVCDMLQSRLSAPRQRLLEFVRQLSGEPQIAYDKVVAASEMMHSDRNAAIAYLMRSFGNFHNEVIPVLHNYFHACALKMSCVELAKTFSYLANKGVSVVTGETVITPTQSKQTNALLATCGLYDGAGEFAYRVGMPGKSGVGGGIIAVVPGEMTIAVWSPALDQSGNSLAGTRALELLAQRIGRSIFLEHHHHHH”: “soluble”; “MQPSIAPSTPIPRQETVELVYRIFGDVLVPLEQVRERWFRNLNKENFSKALACGRIALPVTTLDDSHKAMQFVALDHLAAYVDQRANQAGSARRAQPGADSIAS”: “not soluble”. On to “YIWIEHRTIHQHVDESQSSLHHTEKQIQTFITQHNNSFQELDLTNHHDVTATKRELLKLIHQQPATLYYELSGPNQFITNNYEHLNTKNMYLFSTHQLKFNNSTYMLKIYMANTPRLSEIKKDSRQFALIVDQYDNILYANDDRFTIGEKYRPQQFGFMNESVKLNHADHRLIIYKDIHENIED”, for which the “soluble on expression in E. coli” value was “not soluble”. On to “MDMNSFSPMMPTSPLSMINQIKFEDEPDLKDLFITVDEPESHVTTIETFITYRIITKTTRGEFDSSEFEVRRRYQDFLWLKGKLEEAHPTLIIPPLPEKFIVKGMVERFNDDFIETRRKALHKFLNRIADHPTLTFNEDFKIFLTAQAWELSSHKKQGPGLLSRMGQTVRAVASSMRGVKNRPEEFMEMNNFIELFSQRINLIDKISQRIYKEEREYFDEMKEYGPIHILWSASEEDLVDTLKDVASCIDRCCKATEKRMSGLSEALLPVVHEYVLYSEMLMGVMKRRDQIQAELDSKVEVLTYKKADTDLLPEEIGKLEDKVECANNALKADWERWKQNMQNDIKLAFTDMAEENIHYYEQCLATWESFLTSQTNLHLEEASEDKP”, for which the “soluble on expression in E. coli” value is reported as “soluble”. Take “DVTPRRDAEYPPPEFLEAMKPLREICIKKTGVTEEAIIEFSDGKVHEDENLKCYMNCLFHEAKVVDDTGHVHLEKLHDALPDSMHDIALHMGKRCLYPEGENLCEKAFWLHKCWKESDPKHYFLI”: the “soluble on expression in E. coli” value was “soluble”. For “QLTPFQQEVSRGLKKSVCHKENMLIHAVTGAGKTEMIYETLASILNQGGAVALASPRIDVCIELYKRLSRDFSCPISLLYGESEAYERSPLVIATTHQLLKFYRAFDLLIIDEVDAFPFVDNKMLYYAVDHCLKSDGVKVFLTATS”, the “soluble on expression in E. coli” value is “not soluble”. On to “MSDVLITLSVELEDRPGQLLKVLQPISGMGGNIVGIVHQRGKKTPLNRLPVEISFKMDSEKVQKLIDELKSLGIIIRSFNEVRLTATTSVLLIGHLIHTDISDTISSIDVDGEAECVEMHVSMPEISGPSTAIITISASGKEKLKEAVEKLKEVCRKKEIILIEPVNEELV”, for which the “soluble on expression in E. coli” value was “not soluble”. In the case of “MGHHHHHHSHMSIRNWVTRTPSSSPPITPPASETKIMSPRKALTPVSQKSSQAEACSESRNRVKRRLDSSCLESVKQKCVKSCNCVTELDGQVENLHLDLCCLAGNQEDLSKDSLGPTKSSKIEGAGTSISEPPSPISPYASESCGTLPLPLRPCGEGSEMVGKENSSPENKNWLLAMAAKRKAENPSPRSPSSQTPNSRRQSGKTLPSPVTITPSSMRKICTYFHRKSQEDFCGPEHSTEL” it was “not soluble”; in that of “MLKHIISAYNFSRDELEDIFALTDKYSKNLNDTRKILSGKTISIAFFEPSTRTYLSFQKAIINLGGDVIGFSGEESTSVAKGENLADTIRMLNNYSDGIVMRHKYDGASRFASEISDIPVINAGDGKHEHPTQAVIDIYTINKHFNTIDGLVFALLGDLKYARTVNSLLRILTRFRPKLVYLISPQLLRARKEILDELNYPVKEVENPFEVINEVDVLYVTRIQKERFVDEMEYEKIKGSYIVSLDLANKMKKDSIILHPLPRVNEIDRKVDKTTKAKYFEQASYGVPVRMSILTKIYGE”, “soluble”; in that of “MGSDKIHHHHHHMLTVNNVSLRYGGRKLFEDVNLKFTPGNCYGIIGANGAGKSTFLKILSGEIEPNTGDVSVDSNTRISVLKQDHFQYDEYEVLETVIMGNERLYSIMKEKDALYAKPDFSEEDGIKASTLEGEFAELNGWEAESEAATLLQGLGISTELHSKKMSELIGGEKVKVLLAQALFGNPGILLLDEPTNHLDIKSIAWLEEFLIDFEGTVIVVSHDRHFLNKVCTMIADVDYGKITLYVGNYDFWYKSSTLALEMTKDQNKKKEEKIKELKDFIARFSANASKSKQATSRKKMLDKLNLEDIKPSNRKYPFIGFKPEREPGNDILTVENLSKTIDGEKVLNNVSFIVSKDDKIALVGDNEIAQTTLFKILSGEMEPDSGSYKWGITITNAYFPKDNSEYFNDCDLSLVDWLRQYSEEKSETYIRGFLGRMLFSGEEALKKASVLSGGEKVRCMLAKTMLTNANFLMFDQPTNHLDLESITALNNGLTNYKSNLMFTSHDHEFIQTIANRIIEITNDGIIDRKCTYDEYLEIQ”, “not soluble”. Consider “MKEVKVGIGDYAVGKGNGIISTYGLGSCVGITLYDRVTKVGGLLHALLPEAARYGHRGNPAKYVDTGLQLLLKEVIKLGASKFRLEAKLFGGAQMFDNIRSEELKIGEKNVQVAKRELRKLGIRLVAEDTGGKGGRTIYLDLSTGKVRMRKVTEGKVIEKVY”, for which the “soluble on expression in E. coli” value was “soluble”. With “SLEQENMEQRVKHESEELLQKFKSTSNLDELIESLGGLGEEAQREAGESLEALKRPVKEMMNDENNHLPQKLHQLKEVVSQLEPDHLKQGAVKKFVNKILGRSPMEQYAQRYKTVEAQVENIIEALLTGKDKLQEDTLMLTQLKGVARERISHLEEQIEMGKQLNAMLESEMTSEEWKNNPTALKKGQQKVISRIKNMSQAIMVLQQSLASVDLIVENNEKLEEAIFNAITMTKNIITVTASIQLALGNQKKVINAVQNVNEATENMLLSNAEMLKKNTEDTLKTLEEPAIAIESFRKAYQDVFAAIELTEQSNERIVSSGKKFIAELDTLNKEMKTKLIESKSTSSS”, the “soluble on expression in E. coli” value is on record as “soluble”.

“KDINLYKGSIPSGKQQGVDAILISNPNLINILEQAKQKNTAQGSESTTNKIIGYTTTANVNVDNQNIFSVSKLNNEQFQRKIIVNATEETLDQSQTLQSNESIVLPMPGKYKSTDKNKVMITQGPNLIGIHANEKENIETKKFVNW”: the “soluble on expression in E. coli” value is on record as “not soluble”. Regarding “MVLSQKLHEAFKGTVERITGPRTISAFKEKGVLSVSEFVLAGDNLVSKCPTWSWESGDASKRKPYLPSDKQFLITRNVPCLRRAASVAEDYEAAGGEVLVDDEDNDGWLATHGKPKGKEEDNLPSMDALDINEKNTIQSIPTYFGGEEDDDIPDMEEFDEADNVVENDPATLQSTYLVAHEPDDDNILRTRTYDLSITYDKYYQTPRVWLTGYDESRMLLQPELVMEDVSQDHARKTVTIEDHPHLPGKHASVHPCRHGAVMKKIIDVLMSRGVEPEVDKYLFLFLKFMASVIPTIEYDYTMDFDLGSSST”, the “soluble on expression in E. coli” value is recorded as “not soluble”.
